Experimental data reported in FireProtDB (doi:10.1002/pro.5560060315).

Conditions: Saccharomyces cerevisiae (strain ATCC 204508 / S288c), CD, structure 1YCC
[1] = pH 3, Thermal, acetate 0.1 M, reversible: yes
[2] = pH 3.25, Thermal, acetate 0.1 M, reversible: yes
[3] = pH 3.5, Thermal, acetate 0.1 M, reversible: yes
[4] = pH 3.75, Thermal, acetate 0.1 M, reversible: yes
[5] = pH 4, Thermal, acetate 0.1 M, reversible: yes
[6] = pH 4.25, Thermal, acetate 0.1 M, reversible: yes
[7] = pH 4.5, 25 °C, Thermal, acetate 0.1 M, reversible: yes
[8] = pH 4.5, Thermal, acetate 0.1 M, reversible: yes
[9] = pH 5, Thermal, acetate 0.1 M, reversible: yes
[10] = pH 7.5, 25 °C, GdnHCl, Tris-HCl 20 mM, NaCl 40 mM, reversible: yes
[11] = pH 3, Thermal, acetate 0.1 M, reversible: yes (50-75%)
[12] = pH 4.75, Thermal, acetate 0.1 M, reversible: yes
[13] = pH 5.25, Thermal, acetate 0.1 M, reversible: yes

Chain of Cytochrome c isoform 1 K79V, P00044 (P00044 whole entry K79V, canonical isoform): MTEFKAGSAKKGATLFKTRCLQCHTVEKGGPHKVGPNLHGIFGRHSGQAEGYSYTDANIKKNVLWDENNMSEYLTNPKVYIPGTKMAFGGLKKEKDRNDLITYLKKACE

In the case of Cytochrome c isoform 1 K79V, P00044, the Tm [1] was 22.7 °C, the “change of melting temperature, mutant - wild type (higher = more stable)” value (shortened to “change of melting temperature, mutant”) [1] was 1.2 °C and the “unfolding enthalpy (van 't Hoff)” value [1] was 37 kcal/mol. For the same substance, the Tm [2] was 28.7 °C, the “change of melting temperature, mutant” value [2] was 6.1 °C and the “unfolding enthalpy (van 't Hoff)” value [2] was 46.3 kcal/mol. For the same substance, the Tm [3] was 31.4 °C, the “change of melting temperature, mutant” value [3] was 0.7 °C and the “unfolding enthalpy (van 't Hoff)” value [3] was 47.3 kcal/mol. For the same substance, the Tm [4] was 36.6 °C, the “change of melting temperature, mutant” value [4] was 1.7 °C and the “unfolding enthalpy (van 't Hoff)” value [4] was 58.5 kcal/mol. For the same substance, the Tm [5] was 38.9 °C, the “change of melting temperature, mutant” value [5] was -1.8 °C and the “unfolding enthalpy (van 't Hoff)” value [5] was 60.2 kcal/mol. The Tm [6] was 42.9 °C, the “change of melting temperature, mutant” value [6] was -0.2 °C and the “unfolding enthalpy (van 't Hoff)” value [6] was 64.8 kcal/mol. For the same substance, the “ddG of mutation (higher = less stable)” value [7] was -0.1 kcal/mol, the “heat capacity change of unfolding” value [7] was 1.5 kcal/mol/K and the “unfolding enthalpy (van 't Hoff)” value [7] was 40 kcal/mol. The unfolding free energy [7] was 3.8 kcal/mol, the Tm [8] was 46.7 °C and the “change of melting temperature, mutant” value [8] was 1.7 °C. For the same substance, the “unfolding enthalpy (van 't Hoff)” value [8] was 72.5 kcal/mol, the Tm [9] was 49.5 °C and the “change of melting temperature, mutant” value [9] was -3.2 °C. The “unfolding enthalpy (van 't Hoff)” value [9] was 75.5 kcal/mol, the “ddG of mutation (higher = less stable)” value [10] was 1.38 kcal/mol and the denaturant m value [10] was 4.01 kcal/mol/M. For the same substance, the unfolding free energy [10] was 4.28 kcal/mol.
For Cytochrome c isoform 1 K79W, P00044, the Tm [11] was 22.8 °C, the “change of melting temperature, mutant” value [11] was 1.3 °C and the “unfolding enthalpy (van 't Hoff)” value [11] was 43.5 kcal/mol. The Tm [2] was 22.8 °C, the “change of melting temperature, mutant” value [2] was 0.2 °C and the “unfolding enthalpy (van 't Hoff)” value [2] was 49.8 kcal/mol. The Tm [3] was 27.5 °C, the “change of melting temperature, mutant” value [3] was -3.2 °C and the “unfolding enthalpy (van 't Hoff)” value [3] was 50.5 kcal/mol. The Tm [4] was 29.2 °C, the “change of melting temperature, mutant” value [4] was -5.7 °C and the “unfolding enthalpy (van 't Hoff)” value [4] was 58.6 kcal/mol. For the same substance, the Tm [6] was 31.5 °C, the “change of melting temperature, mutant” value [6] was -11.6 °C and the “unfolding enthalpy (van 't Hoff)” value [6] was 68.5 kcal/mol. The “ddG of mutation (higher = less stable)” value [7] was 1.6 kcal/mol, the “heat capacity change of unfolding” value [7] was 1.15 kcal/mol/K and the “unfolding enthalpy (van 't Hoff)” value [7] was 51.4 kcal/mol. The unfolding free energy [7] was 2.1 kcal/mol, the Tm [8] was 36.1 °C and the “change of melting temperature, mutant” value [8] was -8.9 °C. For the same substance, the “unfolding enthalpy (van 't Hoff)” value [8] was 64.2 kcal/mol, the Tm [12] was 39 °C and the “change of melting temperature, mutant” value [12] was -9.6 °C. The “unfolding enthalpy (van 't Hoff)” value [12] was 71.4 kcal/mol, the Tm [9] was 47.6 °C and the “change of melting temperature, mutant” value [9] was -5.1 °C. The “unfolding enthalpy (van 't Hoff)” value [9] was 78 kcal/mol, the Tm [13] was 49.3 °C and the “unfolding enthalpy (van 't Hoff)” value [13] was 76.5 kcal/mol. For the same substance, the “ddG of mutation (higher = less stable)” value [10] was 1.43 kcal/mol, the denaturant m value [10] was 4.16 kcal/mol/M and the unfolding free energy [10] was 4.23 kcal/mol.
